Experimental data published in the Immune Epitope Database (IEDB).
pIC50, pKd: −log10 of the molar value.

Columns and labels:
HLA-B*40:01 = test: IEDB peptide-MHC binding, purified MHC/competitive/radioactivity; filed as Kd, often an IC50 or EC50 that approximates it; ≥ and ≤ were set here for values at or beyond the usual limits of such assays
HLA-A*02:01 [1] = test: IEDB peptide-MHC binding, purified MHC/competitive/fluorescence; ≥ and ≤ were set here for values at or beyond the usual limits of such assays
HLA-A*32:01 = test: IEDB peptide-MHC binding, purified MHC/competitive/radioactivity; filed as Kd, often an IC50 or EC50 that approximates it; ≥ and ≤ were set here for values at or beyond the usual limits of such assays
HLA-A*11:01 [2] = test: IEDB peptide-MHC binding, purified MHC/direct/fluorescence; filed as Kd, often an IC50 or EC50 that approximates it; ≥ and ≤ were set here for values at or beyond the usual limits of such assays; conditions: source organism: SARS-CoV1
HLA-A*23:01 = test: IEDB peptide-MHC binding, purified MHC/competitive/radioactivity; filed as Kd, often an IC50 or EC50 that approximates it; ≥ and ≤ were set here for values at or beyond the usual limits of such assays
HLA-A*30:01 = test: as above
HLA-A*26:01 = test: as above
HLA-A*24:02 = test: as above
HLA-A*29:02 = test: as above
HLA-A*01:01 = test: as above
HLA-A*30:02 = test: as above
HLA-B*44:03 = test: as above
HLA-B*44:02 = test: as above
HLA-A*02:01 [3] = test: IEDB peptide-MHC binding, purified MHC/direct/fluorescence; filed as Kd, often an IC50 or EC50 that approximates it; ≥ and ≤ were set here for values at or beyond the usual limits of such assays; conditions: source organism: Vaccinia virus Copenhagen
HLA-A*69:01 = test: as above; conditions: source organism: Vaccinia virus Copenhagen
HLA-B*58:01 = test: as above; conditions: source organism: Vaccinia virus Copenhagen
HLA-B*15:01 = test: as above; conditions: source organism: Vaccinia virus Copenhagen
HLA-A*11:01 [4] = test: IEDB peptide-MHC binding, purified MHC/competitive/radioactivity; filed as Kd, often an IC50 or EC50 that approximates it; ≥ and ≤ were set here for values at or beyond the usual limits of such assays; conditions: source organism: SARS coronavirus Tor2
HLA-A*68:01 = test: as above; conditions: source organism: SARS coronavirus Tor2
HLA-A*31:01 = test: as above; conditions: source organism: SARS coronavirus Tor2
HLA-A*33:01 = test: as above; conditions: source organism: SARS coronavirus Tor2
HLA-A*03:01 = test: as above; conditions: source organism: SARS coronavirus Tor2
[5] = source organism: Dengue virus 2 Jamaica/1409/1983
[6] = source organism: Vaccinia virus WR
[7] = source organism: Dengue virus 4 Philippines/H241/1956
[8] = source organism: Zaire ebolavirus
[9] = source organism: Dengue virus 1 Brazil/97-11/1997
[10] = source organism: Mammarenavirus mopeiaense
[11] = source organism: Mammarenavirus lassaense
[12] = source organism: Mammarenavirus guanaritoense
[13] = source organism: Lymphocytic choriomeningitis virus (strain Armstrong)
[14] = source organism: Mammarenavirus brazilense
[15] = source organism: Vaccinia virus Copenhagen
[16] = source organism: SARS coronavirus Tor2

TESHNQTFL
pKd (HLA-B*40:01; [5]): 7.79

LVINRLGAD
pIC50 (HLA-A*02:01 [1]; [6]): ≤ 3.88

LEENMEVEI
pKd (HLA-B*40:01; [7]): 7.08

TTFAEGVVA
pIC50 (HLA-A*02:01 [1]; [8]): 4.30

KMSYSSVMI
pKd (HLA-A*32:01; [6]): 7.85

AATEAEKQL
pIC50 (HLA-A*02:01 [1]; [8]): ≤ 3.36

RLGYILEDI
pKd (HLA-A*32:01; [7]): 5.14

GTAKLRWFVE
pKd (HLA-A*32:01; [9]): ≤ 4.68

DRYPANAIV
pKd (HLA-A*11:01 [2]): ≤ 4.60

TKIDSMFLM
pIC50 (HLA-A*02:01 [1]; source organism: Variola virus): 4.42

LCLSGEGWPY
pKd (HLA-A*32:01; [10]): ≤ 4.27 | pKd (HLA-A*23:01; [10]): ≤ 4.15 | pKd (HLA-A*30:01; [10]): ≤ 4.15 | pKd (HLA-A*26:01; [10]): ≤ 4.16 | pKd (HLA-A*24:02; [10]): ≤ 4.15

VELPNSLEEL
pKd (HLA-B*40:01; [9]): 7.53

FYSQESPQSY
pKd (HLA-A*32:01; [11]): 5.03 | pKd (HLA-A*29:02; [11]): 8.75 | pKd (HLA-A*30:01; [11]): ≤ 4.31 | pKd (HLA-A*01:01; [11]): 6.12 | pKd (HLA-A*30:02; [11]): 5.53 | pKd (HLA-A*26:01; [11]): 6.42

CEPRSGIDF
pKd (HLA-B*44:03; [7]): 6.05

MENKAWLVH
pKd (HLA-B*44:03; source organism: Dengue virus 2 16681-PDK53): 6.77

DLMSMSDGEF
pKd (HLA-A*32:01; [12]): ≤ 4.64 | pKd (HLA-A*29:02; [12]): 5.05 | pKd (HLA-A*30:01; [12]): ≤ 4.15 | pKd (HLA-A*01:01; [12]): ≤ 4.39 | pKd (HLA-A*30:02; [12]): 5.72 | pKd (HLA-A*26:01; [12]): 6.17

LEKAANVQW
pKd (HLA-B*44:02; [7]): 7.23 | pKd (HLA-B*44:03; [7]): 6.41

IHAHHQWMTT
pKd (HLA-A*32:01; [9]): ≤ 4.57

FTSDVKAAVI
pKd (HLA-A*32:01; [13]): ≤ 4.16 | pKd (HLA-A*29:02; [13]): ≤ 4.51 | pKd (HLA-A*30:01; [13]): 5.30 | pKd (HLA-A*01:01; [13]): 6.37 | pKd (HLA-A*30:02; [13]): ≤ 4.20 | pKd (HLA-A*26:01; [13]): 5.19

DLMGVPYCNY
pKd (HLA-A*32:01; [13]): ≤ 4.28 | pKd (HLA-A*29:02; [13]): 6.83 | pKd (HLA-A*30:01; [13]): ≤ 4.17 | pKd (HLA-A*01:01; [13]): 5.34 | pKd (HLA-A*30:02; [13]): 6.26 | pKd (HLA-A*26:01; [13]): 6.79

LETLLLLTL
pKd (HLA-B*44:02; [5]): 6.22 | pKd (HLA-B*44:03; [5]): 5.87 | pKd (HLA-B*40:01; [5]): 8.24

ELLGYCVSLF
pKd (HLA-A*32:01; [14]): 4.96 | pKd (HLA-A*29:02; [14]): 5.03 | pKd (HLA-A*30:01; [14]): 5.73 | pKd (HLA-A*01:01; [14]): 5.44 | pKd (HLA-A*30:02; [14]): 4.76 | pKd (HLA-A*26:01; [14]): 6.50

IFINKLNGA
pIC50 (HLA-A*02:01 [1]; [15]): 5.48

IEETNMITL
pKd (HLA-B*40:01; [7]): 7.92

SKGWHDWQQV
pKd (HLA-A*32:01; source organism: Dengue virus 3 Martinique/1243/1999): 5.85

GEIGAVTLDF
pKd (HLA-B*44:02; [7]): 7.77 | pKd (HLA-B*44:03; [7]): 7.67 | pKd (HLA-B*40:01; [7]): 7.14

ILYYLSAKI
pKd (HLA-A*32:01; [15]): 8.05

EFSRSILWDY
pKd (HLA-A*32:01; [12]): ≤ 4.67 | pKd (HLA-A*29:02; [12]): 5.95 | pKd (HLA-A*30:01; [12]): 5.85 | pKd (HLA-A*01:01; [12]): 6.13 | pKd (HLA-A*30:02; [12]): 6.68 | pKd (HLA-A*26:01; [12]): 4.99

SIINSNVTW
pKd (HLA-A*32:01; source organism: Vaccinia virus L-IPV): 7.95

STMDVNHPI
pKd (HLA-A*32:01; [6]): 8.13

PVILSLPRI
pIC50 (HLA-A*02:01 [1]; source organism: Variola virus): 5.73

VTLRKERLA
pIC50 (HLA-A*02:01 [1]; [8]): ≤ 3.44

AHGSTLAGV
pIC50 (HLA-A*02:01 [1]; [8]): 4.22

KEVALLRTY
pKd (HLA-B*44:02; [7]): 8.58 | pKd (HLA-B*44:03; [7]): 7.20

DLGPAFTEL
pKd (HLA-A*02:01 [3]): 6.66 | pKd (HLA-A*69:01): 7.65 | pKd (HLA-B*58:01): 5.06 | pKd (HLA-B*15:01): ≤ 4.56

EELPDTIETL
pKd (HLA-B*40:01; [9]): 6.78

AGISYKDREW
pKd (HLA-B*44:02; [7]): 6.07 | pKd (HLA-B*44:03; [7]): 5.38

PNERRAWNSL
pKd (HLA-A*32:01; source organism: Dengue virus 4 Dominica/814669/1981): 5.89

TVAYFNMVY
pKd (HLA-A*11:01 [4]): 7.22 | pKd (HLA-A*23:01; [16]): 4.85 | pKd (HLA-A*68:01): 7.12 | pKd (HLA-A*29:02; [16]): 8.42 | pKd (HLA-A*31:01): ≤ 4.24 | pKd (HLA-A*01:01; [16]): 6.91 | pKd (HLA-A*33:01): ≤ 4.28 | pKd (HLA-A*03:01): 7.38 | pKd (HLA-A*30:02; [16]): 7.15 | pKd (HLA-A*26:01; [16]): 7.85 | pKd (HLA-A*24:02; [16]): 4.96
